Laboratory results from paper PMC5687031.

Target: full-length Spc29^2-253 (S. cerevisiae) (UniProt P33419)
Assay: SAXS

Chain of full-length Spc29^2-253 (P33419 2-253): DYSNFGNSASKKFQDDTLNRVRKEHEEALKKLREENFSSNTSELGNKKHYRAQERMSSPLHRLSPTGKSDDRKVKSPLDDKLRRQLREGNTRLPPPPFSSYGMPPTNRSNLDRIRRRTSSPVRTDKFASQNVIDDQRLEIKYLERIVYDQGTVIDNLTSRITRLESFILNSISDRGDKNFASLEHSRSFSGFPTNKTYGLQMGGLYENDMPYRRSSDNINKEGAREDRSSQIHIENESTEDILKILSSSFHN

Substance: full-length Spc29^2-253 (from UniProt P33419 2-253) (natural protein)
- stoichiometry N: 3 chains
